Consider five molecules from patent US20230012273A1 (Boehringer Ingelheim, published 2023).

The target in assay [1] is T1, cynoSIRPα (NP_001271679), Extracellular Domain + His-Tag (cynomolgus monkey).
T1 construct: also called CySIRPα NP_001271679; not shown: His-Tag
T1 chain: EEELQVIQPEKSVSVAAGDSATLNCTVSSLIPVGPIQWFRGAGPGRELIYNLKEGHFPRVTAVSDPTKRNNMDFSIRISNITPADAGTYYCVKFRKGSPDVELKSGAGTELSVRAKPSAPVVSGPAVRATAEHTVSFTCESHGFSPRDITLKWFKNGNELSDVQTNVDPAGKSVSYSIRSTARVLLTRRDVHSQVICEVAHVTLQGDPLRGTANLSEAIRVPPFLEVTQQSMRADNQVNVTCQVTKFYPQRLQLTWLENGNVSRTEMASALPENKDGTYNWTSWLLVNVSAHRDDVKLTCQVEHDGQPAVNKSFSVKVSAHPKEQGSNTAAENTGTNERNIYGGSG
Briefly: SPR, antibody captured on Protein A/G, ECD-His analyte, 1:1 fit. The procedure, abridged:
(§1)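 Analyte was His-tagged SIRPα extracellular domain in dilution series, associating 300 s and dissociating 600 s at 30 μl/min. Ligand was antibody captured (~240 RU) on immobilized Protein A/G (~3000 RU). Running buffer HBS-EP+.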
(In SPR one partner is held on a chip, and binding of the other changes the refractive index at the surface.)

In assay [2] the target is T2, cynoSIRPα (EGM_02252), Extracellular Domain + His-Tag (cynomolgus monkey).
T2 construct: also called CySIRPα EGM_02252; not shown: His-Tag
T2 chain: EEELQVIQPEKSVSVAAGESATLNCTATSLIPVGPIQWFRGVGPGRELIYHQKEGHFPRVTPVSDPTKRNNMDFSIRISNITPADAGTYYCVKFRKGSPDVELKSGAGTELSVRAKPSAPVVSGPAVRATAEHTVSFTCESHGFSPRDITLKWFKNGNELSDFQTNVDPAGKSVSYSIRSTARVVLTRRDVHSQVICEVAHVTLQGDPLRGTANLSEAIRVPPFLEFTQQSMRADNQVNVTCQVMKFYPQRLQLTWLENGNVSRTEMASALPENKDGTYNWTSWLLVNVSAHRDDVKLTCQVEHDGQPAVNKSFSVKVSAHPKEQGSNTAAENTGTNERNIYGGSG
Briefly: SPR, antibody captured on Protein A/G, ECD-His analyte, steady-state fit. As to the method:
(§2) The binding kinetics of anti-SIRPα antibodies to various SIRPα analytes are determined by surface plasmon resonance (SPR) using a Biacore 8K+(Cytiva). 1×HBS-EP+(Cytiva) is used as running buffer and for all the dilutions unless stated otherwise. The Series S CM5 sensorchip is activated with a 1:1 mixture of 0.1 M NHS (N-hydroxysuccinimide) and 0.4 M EDC (1-Ethyl-3-(3-dimethylaminopropyl) carbodiimide hydrochloride) for 420 seconds at a flow rate of 10 μl/min and immobilized with Protein A/G (Thermo Scientific, 10 μg/ml in 10 mM acetate pH 4.5) for 420 seconds at a flowrate of 10 μl/min resulting in approximately 3000 RU of Protein A/G on the surface. The sensorchip is then deactivated with 1 M ethanolamine HCl pH 8.5 for 420 seconds at a flowrate of 10 μl/min.
(§3) Antibodies (approximately 1 ug/ml) are captured on the Protein A/G surface for 60 seconds at a flowrate of 10 μl/min resulting in capture levels of approximately 240 RU. Dilutions of each SIRP protein (Extracellular Domain+His-Tag, with the concentrations as indicated) are injected as analytes over the captured antibody for 300 seconds of association at a flowrate of 30 μl/min, followed by a dissociation for 600 seconds.
(§4) The above procedures are used to measure binding properties of antibodies of the present disclosure. For each analyte used, the highest concentration was as indicated in Example 3 (see Table 36).

Assay [3] has as its target T3, cynoSIRPα (XP_015313155), Extracellular Domain + His-Tag (cynomolgus monkey).
T3 construct: also called CySIRPα XP_015313155; not shown: His-Tag
T3 chain: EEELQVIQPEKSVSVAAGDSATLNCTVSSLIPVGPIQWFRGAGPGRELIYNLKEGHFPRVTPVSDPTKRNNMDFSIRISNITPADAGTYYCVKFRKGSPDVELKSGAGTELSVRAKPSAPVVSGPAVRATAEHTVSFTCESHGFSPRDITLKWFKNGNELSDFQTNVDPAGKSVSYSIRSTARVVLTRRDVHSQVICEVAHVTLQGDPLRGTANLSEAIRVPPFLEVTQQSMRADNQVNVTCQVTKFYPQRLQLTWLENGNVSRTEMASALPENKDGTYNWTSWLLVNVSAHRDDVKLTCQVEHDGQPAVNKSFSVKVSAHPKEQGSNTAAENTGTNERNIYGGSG
The description is as above. As to the method: as §2, §3, §4

Assay [4] addresses T2, cynoSIRPα (EGM_02252), Extracellular …. Briefly: SPR, antibody captured on Protein A/G, ECD-His analyte. The procedure, abridged:
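Anti-SIRPα antibodies (~1 ug/ml) were captured on a Protein A/G CM5 surface to ~240 RU in HBS-EP+ running buffer (Biacore 8K+). His-tagged ECD analyte dilutions were injected with 300 s association at 30 μl/min and 600 s dissociation.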

Assay [5] addresses T4, Human SIRPαV1 (NP_542970.1), Extracellular Domain + His-Tag (human, UniProt P78324 31-373).
T4 construct: also called huSIRPαV1; hSIRPαV1; not shown: His-Tag
Briefly: SPR, antibody captured on Protein A/G, ECD-His analyte, 1:1 fit. In outline:
as §1

The target of assay [6] is T5, Human SIRPαV2 (CAA71403.1), Extracellular Domain + His-Tag (human, UniProt P78324 31-373).
T5 construct: also called huSIRPαV2; hSIRPαV2; not shown: His-Tag
Described as above. In outline:
as §1

The target of assay [7] is T3, cynoSIRPα (XP_015313155), Extracellular …. The assay is described as above. The procedure, abridged: as §1

T5 sequence (P78324 other isoform, or with tags, fused parts or gaps): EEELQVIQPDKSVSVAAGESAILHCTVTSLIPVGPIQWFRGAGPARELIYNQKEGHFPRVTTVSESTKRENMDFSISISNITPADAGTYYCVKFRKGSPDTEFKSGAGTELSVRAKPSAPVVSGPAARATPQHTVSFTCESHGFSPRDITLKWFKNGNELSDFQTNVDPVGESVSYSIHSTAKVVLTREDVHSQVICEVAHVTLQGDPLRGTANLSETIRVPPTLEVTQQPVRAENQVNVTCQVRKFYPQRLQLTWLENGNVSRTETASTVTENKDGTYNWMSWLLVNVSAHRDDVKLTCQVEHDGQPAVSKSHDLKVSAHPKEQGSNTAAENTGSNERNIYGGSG
T4 sequence (P78324 other isoform, or with tags, fused parts or gaps): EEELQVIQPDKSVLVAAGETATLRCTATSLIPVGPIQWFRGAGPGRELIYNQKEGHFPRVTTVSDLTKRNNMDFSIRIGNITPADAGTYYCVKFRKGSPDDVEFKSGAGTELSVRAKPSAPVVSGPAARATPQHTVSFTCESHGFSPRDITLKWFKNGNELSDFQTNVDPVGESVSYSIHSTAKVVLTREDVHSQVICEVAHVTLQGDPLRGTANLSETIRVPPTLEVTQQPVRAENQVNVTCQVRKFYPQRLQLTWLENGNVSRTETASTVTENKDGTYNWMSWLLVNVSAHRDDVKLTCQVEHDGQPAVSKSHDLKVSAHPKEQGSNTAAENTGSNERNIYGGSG

B1: Antibody A (antibody, human IgG1, kappa, L234A L235A)
heavy: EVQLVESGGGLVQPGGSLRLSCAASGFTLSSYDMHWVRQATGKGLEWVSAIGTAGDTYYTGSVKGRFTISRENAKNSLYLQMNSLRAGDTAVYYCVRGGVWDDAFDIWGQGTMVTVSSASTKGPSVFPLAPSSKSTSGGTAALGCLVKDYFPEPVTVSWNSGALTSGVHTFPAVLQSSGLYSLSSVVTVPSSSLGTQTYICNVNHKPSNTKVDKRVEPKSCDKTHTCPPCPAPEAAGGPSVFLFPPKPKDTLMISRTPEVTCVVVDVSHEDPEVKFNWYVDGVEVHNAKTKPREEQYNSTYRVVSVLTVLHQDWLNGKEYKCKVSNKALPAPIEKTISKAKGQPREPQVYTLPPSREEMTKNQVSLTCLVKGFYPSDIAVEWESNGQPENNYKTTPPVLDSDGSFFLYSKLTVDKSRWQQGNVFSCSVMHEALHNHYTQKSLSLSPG
light: DIQMTQSPSSLSASVGDRVTITCRASQDINNYLAWFQQKPGKAPKSLIYTASSLHSGVPSKFSGSGSGTDFTLTISSLQPEDFATYYCQQYVSYPYTFGQGTKLEIKRTVAAPSVFIFPPSDEQLKSGTASVVCLLNNFYPREAKVQWKVDNALQSGNSQESVTEQDSKDSTYSLSSTLTLSKADYEKHKVYACEVTHQGLSSPVTKSFNRGEC
As a reminder, the Kd is the equilibrium constant for the complex coming apart. In general, koff refers to a measure of how fast the partners let go of each other. In general, kon refers to the rate constant with which the complex forms. As to B1, in assay [1], the Kd came out at 158 nM, the koff is 0.138 s⁻¹ and the kon was determined as 873000 M⁻¹ s⁻¹. Also, the Kd in assay [2] worked out at 258 nM. For the same molecule, the dissociation constant Kd in assay [3] worked out at 165 nM.

B2: Antibody E18 (antibody, human IgG1, kappa, L234A L235A, V domains shown)
VH: QVQLQESGPGLVRPSETLSLTCTVSGGSIRNYYWSWIRQPPGKGLEWIGFIYYTGRTFYNPSLKSRVTISLDMSKNQFSLKMTSVTAADTAVYYCARVRAYSGIGLDGTDVWGQGTTVTVSS
VL: DIVMTQSPLSLPVTPGEPASISCKSSQSLLYSNGYAYLDWYLQRPGQSPQLLIYLGSNRASGVPDRFSGSGSGTDFTLKISRVEAEDVGVYYCMQALQTPLTFGGGTKVEIKR
Consider B2, for which the binding result in assay [4] was “no binding (tested: 1000 nM)”. Also, the Kd in assay [5] was found to be 2.46 nM; in assay [6], 0.9 nM; in assay [1], 52.5 nM; in assay [7] it was 50 nM. Further, the koff in assay [5] turned out to be 0.00101 s⁻¹; in assay [6], 0.000443 s⁻¹; in assay [1], 0.0118 s⁻¹; in assay [7], 0.0113 s⁻¹. In addition, the kon worked out at 410000 M⁻¹ s⁻¹ in assay [5], 493000 M⁻¹ s⁻¹ in assay [6], 224000 M⁻¹ s⁻¹ in assay [1] and 226000 M⁻¹ s⁻¹ in assay [7].

B3: Antibody E20 (antibody, human IgG1, kappa, L234A L235A, V domains shown)
VH: QVQLQESGPGLVRPSETLSLTCTVSGGSIRNYYWSWIRQPPGKGLEWIGFIYYTGRTFYNPSLKSRVTISLDMSINQFSLKMTSVTAADTAVYYCARVRAYSGIGLDGTDVWGQGTTVTVSS
VL: DIVMTQSPLSLPVTPGEPASISCKSSQSLLYSNAYNYLDWYLQRPGQSPQLLIYLGSNRASGVPDRFSGSGSGTDFTLKISRVEAEDVGVYYCMQALQTPLTFGGGTKVEIKR
Regarding B3, the binding result in assay [4] was “no binding (tested: 1000 nM)”. Further, the Kd in assay [5] turned out to be 3.42 nM; in assay [6], 1.11 nM; in assay [1], 111 nM; in assay [7], 104 nM. The koff amounted to 0.00164 s⁻¹ in assay [5], 0.000627 s⁻¹ in assay [6], 0.0278 s⁻¹ in assay [1] and 0.0261 s⁻¹ in assay [7]. Also, the kon turned out to be 480000 M⁻¹ s⁻¹ in assay [5], 563000 M⁻¹ s⁻¹ in assay [6], 251000 M⁻¹ s⁻¹ in assay [1] and 251000 M⁻¹ s⁻¹ in assay [7].

B4: Antibody E19 (antibody, human IgG1, kappa, L234A L235A, V domains shown)
VH: QVQLQESGPGLVRPSETLSLTCTVSGGSIRNYYWSWIRQPPGKGLEWIGFIYYTGRTFYNPSLKSRVTISLDMSKNQFSLKMTSVTAADTAVYYCARVRAYSGIGLDGTDVWGQGTTVTVSS
VL: DIVMTQSPLSLPVTPGEPASISCKSSQSLLYSNGYAYLDWYLQRPGQSPQLLIYQGSNRASGVPDRFSGSGSGTDFTLKISRVEAEDVGVFYCMQALQTPLTFGGGTKVEIKR
As to B4, the binding result in assay [4] is on record as “no binding (tested: 1000 nM)”. In addition, the Kd in assay [5] came to 2.52 nM; in assay [6] it was 0.97 nM; in assay [1], 46.6 nM; in assay [7] it was 44.7 nM. Besides, the dissociation rate constant (koff) in assay [5] worked out at 0.000843 s⁻¹; in assay [6] it was 0.000399 s⁻¹; in assay [1] it was 0.00725 s⁻¹; in assay [7], 0.00687 s⁻¹. For the same molecule, the kon turned out to be 334000 M⁻¹ s⁻¹ in assay [5], 411000 M⁻¹ s⁻¹ in assay [6], 156000 M⁻¹ s⁻¹ in assay [1] and 154000 M⁻¹ s⁻¹ in assay [7].

B5: Antibody E21 (antibody, human IgG1, kappa, L234A L235A, V domains shown)
VH: QVQLQESGPGLVRPSETLSLTCTVSGGSIRNYYWSWIRQPPGKGLEWIGFIYYTGRTFYNPSLKSRVTISLDMSKNQFSLKMTSVTAADTAVYYCARVRAYSGIGLDGTDVWGQGTTVTVSS
VL: DIVMTQSPLSLPVTPGEPASISCKSSQSLLYSNAYNYLDWYLQRPGQSPQLLIYLGSNRASGVPDRFSGSGSGTDFTLKISRVEAEDVGVYYCMQALQTPLTFGGGTKVEIKR
In the case of B5, the binding result in assay [4] was “no binding (tested: 1000 nM)”. Moreover, the Kd in assay [5] is 4.46 nM; in assay [6], 1.39 nM; in assay [1] it was 107 nM; in assay [7], 108 nM. Moreover, the koff in assay [5] was 0.00212 s⁻¹; in assay [6], 0.000761 s⁻¹; in assay [1], 0.0242 s⁻¹; in assay [7], 0.0245 s⁻¹. For the same molecule, the kon in assay [5] is 476000 M⁻¹ s⁻¹; in assay [6] it was 549000 M⁻¹ s⁻¹; in assay [1], 225000 M⁻¹ s⁻¹; in assay [7], 228000 M⁻¹ s⁻¹.
